According to patent publication US6596504B2, “Treatment of prophylaxis of diseases caused by pilus-forming bacteria” (Washington University, priority 1993, dated 2003):

Key:
PapD [1] = target: T1, PapD (Escherichia coli, UniProt P15319); assay: ELISA: PapD binding to immobilized second site peptides of PapG; design: species or system E. coli; settings: peptide coated on wells, 200 pmol PapD
T1 construct: (A) NAME/KEY: mat_; made in house; Lindberg et al. 1989
T1 sequence (P15319 22-239): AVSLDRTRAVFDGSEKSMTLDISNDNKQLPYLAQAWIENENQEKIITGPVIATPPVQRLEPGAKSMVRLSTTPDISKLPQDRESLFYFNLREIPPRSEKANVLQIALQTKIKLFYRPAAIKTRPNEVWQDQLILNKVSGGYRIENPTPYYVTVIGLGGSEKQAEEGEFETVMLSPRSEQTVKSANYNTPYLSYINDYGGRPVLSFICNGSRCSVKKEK
Description: Four synthetic peptides overlapping the PapG region from residue 156′ to 120′ (indicated in FIG. 20) were coated to wells of microtiter plates. The concentration of each peptide in the wells is indicated. Binding of 200 pmol/[…] of PapD to the immobilized peptide was determined by ELISA using anti-PapD antiserum.
For assaying the second site peptides, all the peptides were dissolved in dimethyl sulfoxide (DMSO, Sigma, St. Louis, Mo., USA) to a final concentration 2 mM. The stock solutions were diluted to a proper concentration in PBS and coated overnight on microtiter wells at 4° C. All the peptide solutions were adjusted to the same DMSO concentration. The subsequent steps followed the procedure described above.

PapD [2] = target: T1, PapD; assay: PapD-MBP/G interactions in vivo: co-elution of PapD on amylose affinity chromatography; assay type: binding, E. coli
Description: Strains carrying MBP or MBP/G fusion gene plasmids were induced in LB broth culture with 1 mM isopropylthiogalactoside (IPTG). Periplasmic extracts were prepared as described (Slonim et al., 1992). One tenth volume of 10×phosphate-buffered saline (PBS, 120 mM NaCl, 2.7 mM KCl, 10 mM Na2HPO4 and 2 mM KH2PO4, pH 7.4) was added to the periplasmic extract. Amylose resin was then added to the periplasmic extracts at a 1:5 ratio. The mixture was rocked at 4° C. overnight and the beads were subsequently washed 5 times with PBS. MBP or MBP/G fusion proteins were eluted with 20 mM maltose in PBS by rocking at 4° C. for an hour. Protein concentrations were determined using the Bio-Rad DC protein assay kit (Bio-Rad Laboratories, Hercules, Calif., USA). The full length fusion protein concentration was further quantitated by the Coomassie stained SDS-PAGE gel with known concentrations of bovine albumin (BSA) as the standards followed by densitometry scanning. […]
The ability of PapD to bind to the MBP/G fusions was investigated using amylose affinity chromatography (Kellermann and Ferenci, 1982). […] Periplasmic extracts from each strain containing the MBP/G proteins and PapD were subjected to amylose affinity chromatography and the eluates analyzed by SDS-PAGE (FIG. 21A) and by western blotting with anti-PapD antisera (FIG. 21B). […]

HB101/pFJ3 [3] = assay: Hemagglutination titer on co-expression of MBP/G fusions with the pap operon; assay type: cell-based, E. coli
Description: HB101/pFJ3 harbouring various MBP/G fusion plasmids was passaged on Trypticase Soy Agar (TSA, Becton Dickinson, Cockeysville, Md., USA) three times to induce P-pili expression. At the last passage, the expression of MBP/G fusions was induced on TSA containing 100 μM IPTG. The cells from different strains were then collected and the HA titers were determined as described (Jacob-Dubuisson et al., 1993b).
PapD is essential for P-pilus assembly (Hultgren et al., 1991). […] The ability of the MBP/G fusions to block pilus formation by inhibiting chaperone-subunit complex formation when co-expressed in trans with the pap operon was tested. Plasmids pMAL-p4, pMAL/G1′-19′, pMAL/G1′-81′ and pMAL/G1′-140′ were transformed into the strain HB101/pFJ3 which contains the pap operon under the control of its own promoter in the vector pACYC184 (Jacob-Dubuisson et al. 1993b). Each MBP/G fusion protein was localized in the periplasm as determined by SDS-PAGE and western blotting with anti-MBP antisera (data not shown). Hemagglutination (HA) assays were performed on the cells co-expressing the pap operon with either MBP (pMAL-p4) or with each of the MBP/G fusions. Co-expression of the MBP/G1′-140′ fusions with the pap operon decreased the HA titer 30 fold compared to the MBP control (see table 3).

HB101/pFJ3 [4] = assay: Pili preparation and quantitation on co-expression of MBP/G fusions; assay type: cell-based, E. coli
Description: The cells obtained from TSA plates were collected. Pili were prepared from the same amounts of cells using the procedure described previously (Jacob-Dubuisson, et al., 1993b). These pili preparations were boiled in Lammeli sample buffer with 4 M urea, then analyzed on Coomassie blue stained SDS polyacrylamide gels. The relative amount of piliation was quantified by densitometric scanning of the PapA bands.

PapD [5] = target: T1, PapD; assay: In vitro complex formation of PapD with MBP/G fusion proteins on silver stained IEF gel; assay type: binding, E. coli
Description: (A) PapD was incubated with 1 μg of amylose affinity purified MBP (lane), MBP-G1′-19′ (lane 2), MBP-G1′-81′ (lane 3), or MBP-G1′-140′ (lane 4) and complex formation was evaluated on the silver stained IEF gel. Positions of MBP/G fusions, PapD and the PapD-MBP-G1′-140′ complex are indicated.
The interaction between PapD and MBP/G fusion in vitro was assayed by incubating purified PapD (1 μg) and amylose bead affinity purified MBP/G fusion protein (1 μg) in 4 μl PBS for 30 minutes and then applied to IEF (pI 3-9), followed by silver staining. Another in vitro assay that is more quantitative is the ELISA described below.

PapD [6] = target: T1, PapD; assay: ELISA: PapD binding to immobilized MBP/G fusion proteins; design: species or system E. coli; settings: 50 pmol PapD
Description: (B) Amylose affinity purified NBP/G fusion proteins were coated to wells of microtiter plates. The concentration of the MBP/G proteins in the wells is indicated. Binding of 50 pmol/[…] of PapD to the immobilized proteins was determined by ELISA using anti-PapD antiserum.
Stock solutions of MBP/G fusion proteins in PBS were diluted to 40 pmol/50 μl with PBS. The solutions of the 40 pmol/50 μl MBP/G fusion proteins were serially diluted in PBS and 50 μl of each solution were used to coat the wells of a 96-well Nunc Immunoplate (Inter Med, DK-4000 Roskilde, Denmark) overnight at 4° C. The wells were then washed with PBS and blocked with 200 μl of […] in PBS for 2 hours at 25° C. The plates were washed vigorously three times with PBS and incubated with 50 μl of PapD diluted at 50 pmol PapD in 50 μl 3% BSA-PBS for 45 minutes at 25° C. After three washings with PBS, the wells were incubated with a 1:500 dilution of rabbit anti-PapD antiserum in 3% BSA-PBS for 45 minutes at 25° C. After three washings with PBS, the wells were incubated with a 1:1000 dilution of goat antiserum to rabbit IgG coupled to alkaline phosphatase in 3% BSA-PBS for 45 minutes at 25° C. […] The reaction was incubated for 1 hour in the dark at 25° C. and the absorbance at 405 nm was read.

PapD [7] = target: T1, PapD; assay: PapD complex formation with PapG truncates (acidic native gel, western blotting); assay type: binding, E. coli; settings: co-expressed in KS474
Description: Periplasm containing PapD and PapG, PapG2 or PapG3 (lane 2, 3 and 4 respectively) were subjected to Gal α(1-4) Gal chromatography and eth eluates were analyzed on acidic native gel electrophoresis following western blotting using anti-PapD (A) and anti-PapG (B) antisera. Purified PapD-PapG complex was loaded-in lane 1.
PapD and the PapG-truncates were co-expressed in KS474, the truncates were induced at OD600 0.6 with 0.5 mM IPTG and PapD under the control of the arabinose promoter was induced with 0.2% arabinose. After one hour induction, periplasmic extracts were prepared and rocked with Gal α(1-4) Gal beads overnight at 4° C. and eluted with 15 μg/ml Gal α(1-4) Gal-TMSET solution as described previously (Hultgren et al., 1989; Kuehn et al., 1991). The eluates were analyzed by acidic native gel eletrophoresis (Striker et al., 1994) followed by western blotting using anti-PapD and anti-PapG antiserum.

G1′-19′WT peptide = target: T2, G1′-19′WT peptide (Escherichia coli, UniProt P13720); assay: Native polyacrylamide gel mobility shift of PapD (wild type and mutants) with G1′-19′WT peptide; assay type: binding, E. coli; settings: native-PAGE assay
T2 construct: G1′-19′ denotes the 19 C-terminal amino acid residues of PapG; made in house; host or cells: synthetic peptide
Description: The ability of the mutant chaperones to bind pilus subunits and modulate pilus assembly in vivo was correlated to their ability to bind to the G1′-19′WT peptide and to PapG in vitro. […] Similarly, mutations in Arg-8 and Lys-112 abolished the ability of PapD to bind to PapG and reconstitute the PapD-PapG complex in vitro (FIG. 7) and to bind to pilus subunits and mediate pilus assembly in vivo (cf. table 2).

Molecule: G125′-140′: peptide of C-terminal amino acid residues 125′ to 140′ of PapG, SEQ ID NO: 20 (DQIKQLPATNTLMLSF)
- binding to PapD in ELISA (PapD [1]): bound to PapD

Molecule: MBP/G1′-19′: fusion of maltose binding protein and COOH-terminal residues 1′-19′ of PapG
- interaction of PapD with MBP/G protein in vivo (co-elution) (PapD [2]; co-expressed, SDS-PAGE and western blot of eluates): only weakly
- stable complexes with PapD in the eluates (PapD [2]; silver stained IEF gel): not possible to detect stable complexes
- effect on hemagglutination (HB101/pFJ3 [3]; co-expression in strains producing P pili): only weak effects on the HA titer
- HA titer (HB101/pFJ3 [3]; highest dilution of cell suspension yielding detectable HA, co-expression with pap operon): 64
- reduction of the amount of pili compared to MBP alone (HB101/pFJ3 [4]; co-expression with pap operon): about 50%
- Pilation percentage (HB101/pFJ3 [4]; densitometry of PapA bands, control HB101/pFJ3/pMAL-p4 = 100%): 50%
- inhibition of pilus assembly (HB101/pFJ3 [4]; expression in cells producing P pili): weak inhibitors
- complex formation with PapD in vitro (PapD [5]): no complexes
- PapD binding to immobilized fusion protein (PapD [6]): weakly

B1: full-length PapG: P pilus tip adhesin PapG (protein)
chain: GWHNVMFYAFNDYLTTNAGNVKVIDQPQLYIPWNTGSATATYYSCSGPEFASGVYFQEYLAWMVVPKHVYTNEGFNIFLDVQSKYGWSMENENDKDFYFFVNGYEWDTWTNNGARICFYPGNMKQLNNKFNDLVFRVLLPVDLPKGHYNFPVRYIRGIQHHYYDLWQDHYKMPYDQIKQLPATNTLMLSFDNVGGCQPSTQVLNIDHGSIVIDRANGNIASQTLSIYCDVPVSVKISLLRNTPPIYNNNKFSVGLGNGWDSIISLDGVEQSEEILRWYTAGSKTVKIESRLYGEEGKRKPGELSGSMTMVLSFP
- complex formation with PapD (PapD [7]): formed a complex

B2: wild type PapD: periplasmic chaperone PapD of E. coli, wild type (protein, UniProt P15319 22-239, looked up)
Chaperone protein PapD: AVSLDRTRAVFDGSEKSMTLDISNDNKQLPYLAQAWIENENQEKIITGPVIATPPVQRLEPGAKSMVRLSTTPDISKLPQDRESLFYFNLREIPPRSEKANVLQIALQTKIKLFYRPAAIKTRPNEVWQDQLILNKVSGGYRIENPTPYYVTVIGLGGSEKQAEEGEFETVMLSPRSEQTVKSANYNTPYLSYINDYGGRPVLSFICNGSRCSVKKEK
- mobility shift on incubation with G1′-19′WT peptide (G1′-19′WT peptide): cause a mobility shift
